Experiment [1] deals with MBP-fused PB1-ZZ of p62 (residues 1-181) wild type (human) (UniProt Q13501). Description: SPR; BIAcore 2000; MBP-PB1-ZZ WT or D69A immobilised on CM5; R-BiP N407 5-100 μM injected; 20 mM HEPES pH 7.5, 100 mM NaCl, 1 mM DTT.
The target in experiment [2] is MBP-PB1-ZZ D69A (human) (UniProt Q13501). Described as above.

Among the data in PMC6098011, “Insights into degradation mechanism of N-end rule substrates by p62/SQSTM1 autophagy adapter” (Nature Communications, 2018) are Kd values, retold here.

For “R-BiP N407 protein (from UniProt P11021 19-654) (domain or fragment)”, the dissociation constant (Kd) in experiment [1] stood at 20.2 µM; in experiment [2], 26.1 µM.
